B1: YBR102C_1 (protein, UniProt P38261 1-753, looked up)
Exocyst complex component …: MVEFSLKKARNNWKHVKKSASSPAKQKTPPSPAKPKQKTKKNPYSDLKDPATSYTLPTINARERSRVATSMQRRLSIHNTNYAPPTLDYSMPLPDMPNMIVPNDNVDSSHNNSSFTTENESVSSKGPSNSLNLSTADLSLNDSSYNKVPARSAMRNTVNPSGSNDPFNNSTSLRKMLANPHFNAKDFVHDKLGNASAITIDKFTSNLTDLSIQVQEEVKLNINKSYNEIMTVNNDLNVAMLELKRVRANINDLNEVLDQCTKIAEKRLQLQDQIDQERQGNFNNVESHSNSPALLPPLKAGQNGNLMRRDRSSVLILEKFWDTELDQLFKNVEGAQKFINSTKGRHILMNSANWMELNTTTGKPLQMVQIFILNDLVLIADKSRDKQNDFIVSQCYPLKDVTVTQEEFSTKRLLFKFSNSNSSLYECRDADECSRLLDVIRKAKDDLCDIFHVEEENSKRIRESFRYLQSTQQTPGRENNRSPNKNKRRSMGGSITPGRNVTGAMDQYLLQNLTLSMHSRPRSRDMSSTAQRLKFLDEGVEEIDIELARLRFESAVETLLDIESQLEDLSERISDEELMLLNLISLKIEQRREAISSKLSQSILSSNEIVHLKSGTENMIKLGLPEQALDLFLQNRSNFIQDLILQIGSVDNPTNYLTQLAVIRFQTIKKTVEDFQDIFKELGAKISSILVDWCSDEVDNHFKLIDKQLLNDEMLSPGSIKSSRKQIDGLKAVGLDFVYKLDEFIKKNSDKIR
B2: YCR030C_1 (protein, UniProt P25623 1-870, looked up)
Suppressor of yeast profilin …: MTEQRTKYADSILTTKSPYEATETIRIRLSQVKLLNKDFYLLFKELANLKRNYAQQLRKIIAENEDITKILNAQMIESNVLTPQEMSAFRFNSLGELRNVWDTVIEELKSDLKSSTEYYNTLDQQVVRELKESVENNTSWRESKDLHSKLSKNAASIEHYSKNNENSSHLEEARRQWDQQSPYLFELFETIDYNRLDTLKNCMLRFQTSFSDYLLNTTKECETVMTKFLAFEPQSEIDRFAKDASQYNFQLSSSSKEVVPNNASPASATGARPVSVSNGAANTEREKKSPQKDKRKSAFGNIGHRLASASSSLTHNDLMNNEFSDSTNNSSLKSKKSSHTLRSKVGSIFGRNKTKNKRQQQSSSNSHIQASITETPNNSSTRVSSTATSSIYQKQRRPTYSSSKSNNWTPGEASDTPPLPPHATPKNVDAPVTADTPPAQTFTPSEVPPSTPQQSSPPTAKEPDSSNLPKTVPISISQPPLQPQSKTKPLPVEPASPSISLPTATVDNQPSGQVDSRPLHIRAPALPPSRKQNFIHNRDSQLYDSLPNHGSGATPTSSSLSSIPQERPVSTLSSQITGELRELNPQATGSSTSLVGQSLFQHSSLDTSQFGLNASIAEVLNASFKDGMLQNSQLIGEIALNYLPNSVMNSPLPIGINLRINNGAKFEKVILNQAFIERVAPEEFKVNPSFIDSRTLGAIKYSIKEPIAPIVIHPVWRFESHQASVVLTVKMSPSLPDEISQIVIEDLVVFVNIDGANATSALSKPQGSFSKEKKRITWRFKEPVVLTRNGEGQRLIARFITDGLAHESAKGVITKFTISETDNVALPHSGAGSGITLTCQELDENNPFGGEWLDVNTKRTLTTGNYHGLA
B3: YCR088W_1 (protein, UniProt P15891 2-592, looked up)
Actin-binding protein: ALEPIDYTTHSREIDAEYLKIVRGSDPDTTWLIISPNAKKEYEPESTGSSFHDFLQLFDETKVQYGLARVSPPGSDVEKIIIIGWCPDSAPLKTRASFAANFAAVANNLFKGYHVQVTARDEDDLDENELLMKISNAAGARYSIQTSSKQQGKASTPPVKKSFTPSKSPAPVSKKEPVKTPSPAPAAKISSRVNDNNDDDDWNEPELKERDFDQAPLKPNQSSYKPIGKIDLQKVIAEEKAKEDPRLVQKPTAAGSKIDPSSDIANLKNESKLKRDSEFNSFLGTTKPPSMTESSLKNDDDKVIKGFRNEKSPAQLWAERKAKQNSGNAETKAEAPKPEVPEDEPEGEPDVKDLKSKFEGLAASEKEEEEMENKFAPPPKKSEPTIISPKPFSKPQEPVKAEEAEQPKTDYKKIGNPLPGMHIEADNEEEPEENDDDWDDDEDEAAQPPLPSRNVASGAPVQKEEPEQEEIAPSLPSRNSIPAPKQEEAPEQAPEEEIEEEAEEAAPQLPSRSSAAPPPPPRRATPEKKPKENPWATAEYDYDAAEDNELTFVENDKIINIEFVDDDWWLGELEKDGSKGLFPSNYVSLGN

Tested on: PPIs identified as affected by the SH3 domain deletions
Assay: Liquid DHFR-PCA low-throughput validation of PPIs affected by SH3 deletion (Fig. S1D-E)
Format: cell-based, Saccharomyces cerevisiae
Settings: label = prey, liquid DHFR-PCA, prey _1 = lost, _2 = gained in screen
Outline: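 Growth at 30 °C was tracked by OD each 15 min over 72 h in agar-free PCA selection medium, starting at 0.1 OD. Cells were diploids selected after mating, first cultured 48 h with NAT and HPH in synthetic complete MSG medium, pH 6.0.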

Molecule | Ratio (Deletedscore / WTscore) (bait BEM1-1) | Ratio (Deletedscore / WTscore) (bait BEM1-2) | Ratio (Deletedscore / WTscore) (bait RVS167) | Ratio (Deletedscore / WTscore) (bait MYO3) | Ratio (Deletedscore / WTscore) (bait MYO5)
B1 | 0.5987 | 0.6932 | 0.8234 |  | 
B2 | 1.033 | 0.5499 | 0.6932 | 0.7978 | 0.5102
B3 | 0.8735 |  |  |  | 

Reference: article PMC7954794, “Protein context shapes the specificity of SH3 domain-mediated interactions in vivo” (Nature Communications, 2021)
